± gives the standard deviation of the averaged measurements.
How the values were obtained:
[1] = system: VchCAST RNA-guided transposition machinery (E. coli BL21(DE3) host, lacZ target); assay: relative integration efficiency (T-RL orientation) vs wild-type transposon end (log2 (normalized fold change)); transposon end mutated: right end (5 bp flank + 75 bp right end); higher = more efficient transposition
How it was run: (§1)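 Barcode abundances in input plasmids and in genomic integration junctions were obtained by PCR amplification and Illumina sequencing. These came from E. coli BL21(DE3) co-transformed with a T7-driven effector plasmid and a pUC57 donor carrying 1549 left-end or 1849 right-end transposon variants, then plated with 0.1 mM IPTG at 37°C for 18 h. Relative integration efficiency is the output/input fold change, normalised to reference barcodes and log-transformed.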

[2] = system: VchCAST RNA-guided transposition machinery (E. coli BL21(DE3) host, lacZ target); assay: relative integration efficiency (T-LR orientation) vs wild-type transposon end (log2 (normalized fold change)); transposon end mutated: right end (5 bp flank + 75 bp right end); higher = more efficient transposition
How it was run: as §1

Sequence | relative integration efficiency (log2) [1] | relative integration efficiency (log2) [2]
ACATTTGTTGCGACAACCATAAAATGATAATTACACCCATAAATTGATAATTATCACACCCATAAATTGATATTGCCTCTGATCATAGTCAGACCAACATTGCTACGACCCGTATTCGCACCGACAC | -0.447 ± 0.038 | -1.69 ± 0.07
ACATTTGTTGCGCAAACCATAAAATGATAATTACACCCATAAATTGATAATTATCACACCCATAAATTGATATTGCCTCTGATCATAGTCAGACCAACATTGCTACGACCCGTATTCGCACCGACAC | -0.839 ± 0.087 | -2.91 ± 0.35
ACATTTGTTGTAACAACCATAAAATGATAATTACACCCATAAATTGATAATTATCACACCCATAAATTGATATTGCCTCTGATCATAGTCAGACCAACATTGCTACGACCCGTATTCGCACCGACAC | -0.2 ± 0.038 | -1.09 ± 0.54
ACATTTGTTGTATGAACCATAAAATGATAATTACACCCATAAATTGATAATTATCACACCCATAAATTGATATTGCCTCTGATCATAGTCAGACCAACATTGCTACGACCCGTATTCGCACCGACAC | -0.782 ± 0.022 | -2.29 ± 0.23
ACATTTGTTTATACAACCATAAAATGATAATTACACCCATAAATGGATAATTATCACACCCAATTTAACTATAACGCTCTGATCATAGTCAGACCAACATTGCTACGACCCGTATTCGCACCGACAC | -1.86 ± 0.27 | -0.232 ± 0.5
ACATTTGTTTATACAACCATAAAATGATAATTACACCCATAAATGGATTATTATCACACCCAATTTAACTATAACGCTCTGATCATAGTCAGACCAACATTGCTACGACCCGTATTCGCACCGACAC | -2.39 ± 0.61 | -1.01 ± 0.12
ACATTTGTTTATACAACCATAAAATGATAATTACACCCATAAATTCATAATTATCACACCCAATTTAACTATAACGCTCTGATCATAGTCAGACCAACATTGCTACGACCCGTATTCGCACCGACAC | -2.45 ± 0.3 | -0.939 ± 0.036
ACATTTGTTTATACAACCATAAAATGATAATTACACCCATAAATTCATTATTATCACACCCAATTTAACTATAACGCTCTGATCATAGTCAGACCAACATTGCTACGACCCGTATTCGCACCGACAC | -3.21 ± 0.16 | -0.961 ± 0.16
ACATTTGTTTATACAACCATAAAATGATAATTACACCCATAAATTTATAATTATCACACCCAATTTAACTATAACGCTCTGATCATAGTCAGACCAACATTGCTACGACCCGTATTCGCACCGACAC | -1.89 ± 0.13 | 0.00132 ± 0.14
ACATTTGTTTATACAACCATAAAATGATAATTACACCCATAAATTTATTATTATCACACCCAATTTAACTATAACGCTCTGATCATAGTCAGACCAACATTGCTACGACCCGTATTCGCACCGACAC | -2.66 ± 0.6 | -0.334 ± 0.058
ACATTTGTTTCGCCAACCATAAAATGATAATTACACCCATAAATTGATAATTATCACACCCATAAATTGATATTGCCTCTGATCATAGTCAGACCAACATTGCTACGACCCGTATTCGCACCGACAC | -1.72 ± 0.26 | -3.75 ± 0.98
ACATTTGTTTCTACAACCATAAAATGATAATTACACCCATAAATTGATAATTATCACACCCATAAATTGATATTGCCTCTGATCATAGTCAGACCAACATTGCTACGACCCGTATTCGCACCGACAC | -1.06 ± 0.14 | -3.43 ± 0.18
ACATTTTGGTATACAACCATAAAATGATAATTACACCCATAAATTGATAATTATCACACCCATAAATTGATATTGCCTCTGATCATAGTCAGACCAACATTGCTACGACCCGTATTCGCACCGACAC | -5.963 ± 0.038 | -6.61 ± 2.1
ACATTTTGTGATACAACCATAAAATGATAATTACACCCATAAATTGATAATTATCACACCCATAAATTGATATTGCCTCTGATCATAGTCAGACCAACATTGCTACGACCCGTATTCGCACCGACAC | -6.54 ± 0.24 | < -10
ACCGGGGTTGATACAACCATAAAATGATAATTACACCCATAAATTGATAATTATCACACCCATAAATTGATATTGCCTCTGATCATAGTCAGACCAACATTGCTACGACCCGTATTCGCACCGACAC | -6.81 ± 0.49 | -5.64 ± 0.3
ACCGTTGTTGATACAACCATAAAATGATAATTACACCCATAAATTGATAATTATCACACCCATAAATTGATATTGCCTCTGATCATAGTCAGACCAACATTGCTACGACCCGTATTCGCACCGACAC | -0.00193 ± 0.024 | 0.612 ± 0.13
ACTAAAGTTGATACAACCATAAAATGATAATTACACCCATAAATTGATAATTATCACACCCATAAATTGATATTGCCTCTGATCATAGTCAGACCAACATTGCTACGACCCGTATTCGCACCGACAC | -6.65 ± 0.58 | -4.99 ± 1.1

Sequence | relative integration efficiency (log2) [1] | relative integration efficiency (log2) [2]
ACTATTGTTGATACAACCATAAAATGATAATTACACCCATAAATTGATAATTATCACACCCATAAATTGATATTGCCTCTGATCATAGTCAGACCAACATTGCTACGACCCGTATTCGCACCGACAC | 0.151 ± 0.07 | 0.436 ± 0.12
AGTAATGTTGATACAACCATAAAATGATAATTACACCCATAAATTGATAATTATCACACCCATAAATTGATATTGCCTCTGATCATAGTCAGACCAACATTGCTACGACCCGTATTCGCACCGACAC | -0.121 ± 0.05 | -0.0802 ± 0.26
AGTTTTGTTGATACAACCATAAAATGATAATTACACCCATAAATTGATAATTATCACACCCATAAATTGATATTGCCTCTGATCATAGTCAGACCAACATTGCTACGACCCGTATTCGCACCGACAC | 0.00539 ± 0.033 | 0.122 ± 0.29
CAAAATGTAAAAAAAACCATACGTTGATTTTACCACCCATAAATTGATAATTAAAACAACCATACCTTGAAATTGCTTATAAAGTGTACAACACTTGAGAAAGTTTACTACAGGTATGCACCGACAC | -4.977 ± 0.011 | -2.89 ± 0.71
CAAAATGTAAAAAAAACCATACGTTGATTTTACGAAACCATACGCTGAAATAAAAACAACCATACCTTGAAATTGCTTATGATCATAGTCAGACCAACATTGCTACGACCCGTATTCGCACCGACAC | -6.15 ± 0.21 | -4.98 ± 2.3
CAAAATGTAAAAAAAACCATACGTTGATTTTACGAAACCATACGCTGAAATAAAAACACCCATAAATTGATATTGCTTATAAAGTGTACAACACTTGAGAAAGTTTACTACAGGTATGCACCGACAC | -8.17 ± 0.95 | < -10
CAAAATGTAAAAAAAACCATACGTTGATTTTACGAAACCATACGCTGAAATAATCACAACCATACCTTGAAATTGCTTATAAAGTGTACAACACTTGAGAAAGTTTACTACAGGTATGCACCGACAC | < -10 | < -10
CAAAATGTAAAAACAACCATAAAATGATAATTAGAAACCATACGCTGAAATAAAAACAACCATACCTTGAAATTGCTTATAAAGTGTACAACACTTGAGAAAGTTTACTACAGGTATGCACCGACAC | -0.449 ± 0.47 | 2.48 ± 0.26
CAAAATGTTGATACAACCATAAAATGATAATTACACCCATAAATTGATAATTATCACACCCATAAATTGATATTGCCTCTGATCATAGTCAGACCAACATTGCTACGACCCGTATTCGCACCGACAC | -0.331 ± 0.081 | -0.0192 ± 0.23
CAATTTGTTGATACAACCATAAAATGATAATTACACCCATAAATTGATAATTATCACACCCATAAATTGATATTGCCTCTGATCATAGTCAGACCAACATTGCTACGACCCGTATTCGCACCGACAC | -0.1076 ± 0.00032 | 0.164 ± 0.0064
CACGGTGTTGATACAACCATAAAATGATAATTACACCCATAAATTGATAATTATCACACCCATAAATTGATATTGCCTCTGATCATAGTCAGACCAACATTGCTACGACCCGTATTCGCACCGACAC | -0.141 ± 0.051 | 0.107 ± 0.15
CACGTTGTTGATACAACCATAAAATGATAATTACACCCATAAATTGATAATTATCACACCCATAAATTGATATTGCCTCTGATCATAGTCAGACCAACATTGCTACGACCCGTATTCGCACCGACAC | -0.27 ± 0.091 | 0.451 ± 0.3
CGCGCTGTTGATACAACCATAAAATGATAATTACACCCATAAATTGATAATTATCACACCCATAAATTGATATTGCCTCTGATCATAGTCAGACCAACATTGCTACGACCCGTATTCGCACCGACAC | 0.101 ± 0.1 | 0.747 ± 0.2
TATAATGTTGATACAACCATAAAATGATAATTACACCCATAAATTGATAATTATCACACCCATAAATTGATATTGCCTCTGATCATAGTCAGACCAACATTGCTACGACCCGTATTCGCACCGACAC | -0.277 ± 0.026 | -0.134 ± 0.48
TGATTTGTTGATACAACCATAAAATGATAATTACACCCATAAATTGATAATTATCACACCCATAAATTGATATTGCCTCTGATCATAGTCAGACCAACATTGCTACGACCCGTATTCGCACCGACAC | 0.00782 ± 0.012 | 0.163 ± 0.18
TGTAATGTTGATACAACCATAAAATGATAATTACACCCATAAATTGATAATTATCACACCCATAAATTGATATTGCCTCTGATCATAGTCAGACCAACATTGCTACGACCCGTATTCGCACCGACAC | -0.138 ± 0.063 | -0.169 ± 0.51
TGTATTGTTGATACAACCATAAAATGATAATTACACCCATAAATTGATAATTATCACACCCATAAATTGATATTGCCTCTGATCATAGTCAGACCAACATTGCTACGACCCGTATTCGCACCGACAC | -0.0404 ± 0.0046 | 0.421 ± 0.14

Source: the supplement of paper PMC10201428
